± gives the uncertainty stated by the source.
B1: GAS2-like protein 1, residues 209 to 276; numbered along this chain, Q99501 (parent)
chain: DELVREILGRCTCPDQFPMIKVSEGKYRVGDSSLLIFVRVLRSHVMVRVGGGWDTLEHYLDKHDPCRC

Variants of: B1
Assay: abundance fitness (aPCA) (normalised: wild type 0, dead -1); higher = more abundant; growth selection in yeast, the domain comes from the species named
Conditions: Homo sapiens

Variant	abundance fitness
DELVREILGRCTCPDQFPMIKVSEQKYRVGDSSLLIFVRVLRSHVMVRVGGGWDTLEHYLDKHDPCRC [G25Q]	-0.13 ± 0.08
DELVREILGRCTCPDQFPMIKVSERKYRVGDSSLLIFVRVLRSHVMVRVGGGWDTLEHYLDKHDPCRC [G25R]	-0.328 ± 0.048
DELVREILGRCTCPDQFPMIKVSESKYRVGDSSLLIFVRVLRSHVMVRVGGGWDTLEHYLDKHDPCRC [G25S]	-0.158 ± 0.041
DELVREILGRCTCPDQFPMIKVSEVKYRVGDSSLLIFVRVLRSHVMVRVGGGWDTLEHYLDKHDPCRC [G25V]	-0.961 ± 0.18
DELVREILGRCTCPDQFPMIKVSEWKYRVGDSSLLIFVRVLRSHVMVRVGGGWDTLEHYLDKHDPCRC [G25W]	-0.58 ± 0.048
DELVREILGRCTCPDQFPMIKVSEYKYRVGDSSLLIFVRVLRSHVMVRVGGGWDTLEHYLDKHDPCRC [G25Y]	-0.388 ± 0.11
DELVREILGRCTCPDQFPMIKVSEGAYRVGDSSLLIFVRVLRSHVMVRVGGGWDTLEHYLDKHDPCRC [K26A]	-0.063 ± 0.16
DELVREILGRCTCPDQFPMIKVSEGCYRVGDSSLLIFVRVLRSHVMVRVGGGWDTLEHYLDKHDPCRC [K26C]	0.204 ± 0.18
DELVREILGRCTCPDQFPMIKVSEGEYRVGDSSLLIFVRVLRSHVMVRVGGGWDTLEHYLDKHDPCRC [K26E]	-0.418 ± 0.17
DELVREILGRCTCPDQFPMIKVSEGFYRVGDSSLLIFVRVLRSHVMVRVGGGWDTLEHYLDKHDPCRC [K26F]	-0.013 ± 0.14
DELVREILGRCTCPDQFPMIKVSEGGYRVGDSSLLIFVRVLRSHVMVRVGGGWDTLEHYLDKHDPCRC [K26G]	-0.589 ± 0.2
DELVREILGRCTCPDQFPMIKVSEGHYRVGDSSLLIFVRVLRSHVMVRVGGGWDTLEHYLDKHDPCRC [K26H]	-0.035 ± 0.15
DELVREILGRCTCPDQFPMIKVSEGLYRVGDSSLLIFVRVLRSHVMVRVGGGWDTLEHYLDKHDPCRC [K26L]	-0.145 ± 0.11
DELVREILGRCTCPDQFPMIKVSEGMYRVGDSSLLIFVRVLRSHVMVRVGGGWDTLEHYLDKHDPCRC [K26M]	-0.213 ± 0.17
DELVREILGRCTCPDQFPMIKVSEGNYRVGDSSLLIFVRVLRSHVMVRVGGGWDTLEHYLDKHDPCRC [K26N]	-0.317 ± 0.092
DELVREILGRCTCPDQFPMIKVSEGQYRVGDSSLLIFVRVLRSHVMVRVGGGWDTLEHYLDKHDPCRC [K26Q]	0.237 ± 0.12
DELVREILGRCTCPDQFPMIKVSEGRYRVGDSSLLIFVRVLRSHVMVRVGGGWDTLEHYLDKHDPCRC [K26R]	0 ± 0.094
DELVREILGRCTCPDQFPMIKVSEGSYRVGDSSLLIFVRVLRSHVMVRVGGGWDTLEHYLDKHDPCRC [K26S]	-0.075 ± 0.092
DELVREILGRCTCPDQFPMIKVSEGTYRVGDSSLLIFVRVLRSHVMVRVGGGWDTLEHYLDKHDPCRC [K26T]	0.149 ± 0.067
DELVREILGRCTCPDQFPMIKVSEGVYRVGDSSLLIFVRVLRSHVMVRVGGGWDTLEHYLDKHDPCRC [K26V]	0.177 ± 0.065
DELVREILGRCTCPDQFPMIKVSEGWYRVGDSSLLIFVRVLRSHVMVRVGGGWDTLEHYLDKHDPCRC [K26W]	0.132 ± 0.077
DELVREILGRCTCPDQFPMIKVSEGKCRVGDSSLLIFVRVLRSHVMVRVGGGWDTLEHYLDKHDPCRC [Y27C]	-0.874 ± 0.26
DELVREILGRCTCPDQFPMIKVSEGKFRVGDSSLLIFVRVLRSHVMVRVGGGWDTLEHYLDKHDPCRC [Y27F]	-0.579 ± 0.11
DELVREILGRCTCPDQFPMIKVSEGKGRVGDSSLLIFVRVLRSHVMVRVGGGWDTLEHYLDKHDPCRC [Y27G]	-0.891 ± 0.12
DELVREILGRCTCPDQFPMIKVSEGKIRVGDSSLLIFVRVLRSHVMVRVGGGWDTLEHYLDKHDPCRC [Y27I]	-0.287 ± 0.42
DELVREILGRCTCPDQFPMIKVSEGKLRVGDSSLLIFVRVLRSHVMVRVGGGWDTLEHYLDKHDPCRC [Y27L]	-0.849 ± 0.11
DELVREILGRCTCPDQFPMIKVSEGKMRVGDSSLLIFVRVLRSHVMVRVGGGWDTLEHYLDKHDPCRC [Y27M]	-0.597 ± 0.28

Variant	abundance fitness
DELVREILGRCTCPDQFPMIKVSEGKPRVGDSSLLIFVRVLRSHVMVRVGGGWDTLEHYLDKHDPCRC [Y27P]	-0.866 ± 0.17
DELVREILGRCTCPDQFPMIKVSEGKRRVGDSSLLIFVRVLRSHVMVRVGGGWDTLEHYLDKHDPCRC [Y27R]	-0.85 ± 0.14
DELVREILGRCTCPDQFPMIKVSEGKSRVGDSSLLIFVRVLRSHVMVRVGGGWDTLEHYLDKHDPCRC [Y27S]	-0.861 ± 0.12
DELVREILGRCTCPDQFPMIKVSEGKTRVGDSSLLIFVRVLRSHVMVRVGGGWDTLEHYLDKHDPCRC [Y27T]	-0.855 ± 0.17
DELVREILGRCTCPDQFPMIKVSEGKVRVGDSSLLIFVRVLRSHVMVRVGGGWDTLEHYLDKHDPCRC [Y27V]	-0.996 ± 0.15
DELVREILGRCTCPDQFPMIKVSEGKWRVGDSSLLIFVRVLRSHVMVRVGGGWDTLEHYLDKHDPCRC [Y27W]	0.079 ± 0.087
DELVREILGRCTCPDQFPMIKVSEGKYAVGDSSLLIFVRVLRSHVMVRVGGGWDTLEHYLDKHDPCRC [R28A]	-0.235 ± 0.053
DELVREILGRCTCPDQFPMIKVSEGKYCVGDSSLLIFVRVLRSHVMVRVGGGWDTLEHYLDKHDPCRC [R28C]	-0.159 ± 0.091
DELVREILGRCTCPDQFPMIKVSEGKYEVGDSSLLIFVRVLRSHVMVRVGGGWDTLEHYLDKHDPCRC [R28E]	-0.516 ± 0.063
DELVREILGRCTCPDQFPMIKVSEGKYFVGDSSLLIFVRVLRSHVMVRVGGGWDTLEHYLDKHDPCRC [R28F]	-0.668 ± 0.14
DELVREILGRCTCPDQFPMIKVSEGKYGVGDSSLLIFVRVLRSHVMVRVGGGWDTLEHYLDKHDPCRC [R28G]	-0.944 ± 0.14
DELVREILGRCTCPDQFPMIKVSEGKYHVGDSSLLIFVRVLRSHVMVRVGGGWDTLEHYLDKHDPCRC [R28H]	-0.549 ± 0.13
DELVREILGRCTCPDQFPMIKVSEGKYIVGDSSLLIFVRVLRSHVMVRVGGGWDTLEHYLDKHDPCRC [R28I]	-0.208 ± 0.068
DELVREILGRCTCPDQFPMIKVSEGKYKVGDSSLLIFVRVLRSHVMVRVGGGWDTLEHYLDKHDPCRC [R28K]	-0.07 ± 0.044
DELVREILGRCTCPDQFPMIKVSEGKYLVGDSSLLIFVRVLRSHVMVRVGGGWDTLEHYLDKHDPCRC [R28L]	-0.05 ± 0.04
DELVREILGRCTCPDQFPMIKVSEGKYMVGDSSLLIFVRVLRSHVMVRVGGGWDTLEHYLDKHDPCRC [R28M]	0.041 ± 0.061
DELVREILGRCTCPDQFPMIKVSEGKYNVGDSSLLIFVRVLRSHVMVRVGGGWDTLEHYLDKHDPCRC [R28N]	-0.857 ± 0.18
DELVREILGRCTCPDQFPMIKVSEGKYPVGDSSLLIFVRVLRSHVMVRVGGGWDTLEHYLDKHDPCRC [R28P]	-0.964 ± 0.18
DELVREILGRCTCPDQFPMIKVSEGKYQVGDSSLLIFVRVLRSHVMVRVGGGWDTLEHYLDKHDPCRC [R28Q]	-0.265 ± 0.12
DELVREILGRCTCPDQFPMIKVSEGKYTVGDSSLLIFVRVLRSHVMVRVGGGWDTLEHYLDKHDPCRC [R28T]	-0.467 ± 0.1
DELVREILGRCTCPDQFPMIKVSEGKYVVGDSSLLIFVRVLRSHVMVRVGGGWDTLEHYLDKHDPCRC [R28V]	-0.15 ± 0.048
DELVREILGRCTCPDQFPMIKVSEGKYWVGDSSLLIFVRVLRSHVMVRVGGGWDTLEHYLDKHDPCRC [R28W]	-0.403 ± 0.079
DELVREILGRCTCPDQFPMIKVSEGKYYVGDSSLLIFVRVLRSHVMVRVGGGWDTLEHYLDKHDPCRC [R28Y]	-0.341 ± 0.068
DELVREILGRCTCPDQFPMIKVSEGKYRAGDSSLLIFVRVLRSHVMVRVGGGWDTLEHYLDKHDPCRC [V29A]	-0.34 ± 0.07
DELVREILGRCTCPDQFPMIKVSEGKYRCGDSSLLIFVRVLRSHVMVRVGGGWDTLEHYLDKHDPCRC [V29C]	-0.213 ± 0.077
DELVREILGRCTCPDQFPMIKVSEGKYREGDSSLLIFVRVLRSHVMVRVGGGWDTLEHYLDKHDPCRC [V29E]	-0.978 ± 0.26
DELVREILGRCTCPDQFPMIKVSEGKYRFGDSSLLIFVRVLRSHVMVRVGGGWDTLEHYLDKHDPCRC [V29F]	-0.163 ± 0.061

Variant	abundance fitness
DELVREILGRCTCPDQFPMIKVSEGKYRGGDSSLLIFVRVLRSHVMVRVGGGWDTLEHYLDKHDPCRC [V29G]	-0.807 ± 0.097
DELVREILGRCTCPDQFPMIKVSEGKYRHGDSSLLIFVRVLRSHVMVRVGGGWDTLEHYLDKHDPCRC [V29H]	-0.188 ± 0.16
DELVREILGRCTCPDQFPMIKVSEGKYRIGDSSLLIFVRVLRSHVMVRVGGGWDTLEHYLDKHDPCRC [V29I]	0.129 ± 0.047
DELVREILGRCTCPDQFPMIKVSEGKYRKGDSSLLIFVRVLRSHVMVRVGGGWDTLEHYLDKHDPCRC [V29K]	-0.855 ± 0.19
DELVREILGRCTCPDQFPMIKVSEGKYRMGDSSLLIFVRVLRSHVMVRVGGGWDTLEHYLDKHDPCRC [V29M]	-0.187 ± 0.05
DELVREILGRCTCPDQFPMIKVSEGKYRNGDSSLLIFVRVLRSHVMVRVGGGWDTLEHYLDKHDPCRC [V29N]	-0.793 ± 0.33
DELVREILGRCTCPDQFPMIKVSEGKYRPGDSSLLIFVRVLRSHVMVRVGGGWDTLEHYLDKHDPCRC [V29P]	-0.985 ± 0.15
DELVREILGRCTCPDQFPMIKVSEGKYRQGDSSLLIFVRVLRSHVMVRVGGGWDTLEHYLDKHDPCRC [V29Q]	-0.501 ± 0.081
DELVREILGRCTCPDQFPMIKVSEGKYRRGDSSLLIFVRVLRSHVMVRVGGGWDTLEHYLDKHDPCRC [V29R]	-0.305 ± 0.073
DELVREILGRCTCPDQFPMIKVSEGKYRSGDSSLLIFVRVLRSHVMVRVGGGWDTLEHYLDKHDPCRC [V29S]	-0.422 ± 0.09
DELVREILGRCTCPDQFPMIKVSEGKYRTGDSSLLIFVRVLRSHVMVRVGGGWDTLEHYLDKHDPCRC [V29T]	-0.531 ± 0.07
DELVREILGRCTCPDQFPMIKVSEGKYRWGDSSLLIFVRVLRSHVMVRVGGGWDTLEHYLDKHDPCRC [V29W]	-0.551 ± 0.089
DELVREILGRCTCPDQFPMIKVSEGKYRYGDSSLLIFVRVLRSHVMVRVGGGWDTLEHYLDKHDPCRC [V29Y]	-0.489 ± 0.18
DELVREILGRCTCPDQFPMIKVSEGKYRVADSSLLIFVRVLRSHVMVRVGGGWDTLEHYLDKHDPCRC [G30A]	-0.35 ± 0.054
DELVREILGRCTCPDQFPMIKVSEGKYRVCDSSLLIFVRVLRSHVMVRVGGGWDTLEHYLDKHDPCRC [G30C]	-0.532 ± 0.2
DELVREILGRCTCPDQFPMIKVSEGKYRVDDSSLLIFVRVLRSHVMVRVGGGWDTLEHYLDKHDPCRC [G30D]	-0.337 ± 0.084
DELVREILGRCTCPDQFPMIKVSEGKYRVEDSSLLIFVRVLRSHVMVRVGGGWDTLEHYLDKHDPCRC [G30E]	-0.862 ± 0.12
DELVREILGRCTCPDQFPMIKVSEGKYRVFDSSLLIFVRVLRSHVMVRVGGGWDTLEHYLDKHDPCRC [G30F]	-0.927 ± 0.19
DELVREILGRCTCPDQFPMIKVSEGKYRVHDSSLLIFVRVLRSHVMVRVGGGWDTLEHYLDKHDPCRC [G30H]	-0.653 ± 0.13
DELVREILGRCTCPDQFPMIKVSEGKYRVIDSSLLIFVRVLRSHVMVRVGGGWDTLEHYLDKHDPCRC [G30I]	-0.803 ± 0.21
DELVREILGRCTCPDQFPMIKVSEGKYRVKDSSLLIFVRVLRSHVMVRVGGGWDTLEHYLDKHDPCRC [G30K]	-0.371 ± 0.085
DELVREILGRCTCPDQFPMIKVSEGKYRVLDSSLLIFVRVLRSHVMVRVGGGWDTLEHYLDKHDPCRC [G30L]	-0.605 ± 0.068
DELVREILGRCTCPDQFPMIKVSEGKYRVMDSSLLIFVRVLRSHVMVRVGGGWDTLEHYLDKHDPCRC [G30M]	-0.432 ± 0.069
DELVREILGRCTCPDQFPMIKVSEGKYRVNDSSLLIFVRVLRSHVMVRVGGGWDTLEHYLDKHDPCRC [G30N]	-0.526 ± 0.15
DELVREILGRCTCPDQFPMIKVSEGKYRVPDSSLLIFVRVLRSHVMVRVGGGWDTLEHYLDKHDPCRC [G30P]	-0.506 ± 0.088
